Test results as given in publication PMC7766840, “Preclinical Evaluation of the Copper-64 Labeled GRPR-Antagonist RM26 in Comparison with the Cobalt-55 Labeled Counterpart for PET-Imaging of Prostate Cancer” (Molecules, 2020).

Legend:
PC-3 xenografts = assay: in vivo; parameters: species or system BALB/c nu/nu mice; conditions: mouse; for Blood uptake / Kidney uptake / Liver uptake / Small int. uptake / Stomach uptake / Tumor uptake / Lung uptake / Pancreas uptake / GI tract uptake / Bone uptake / Spleen uptake: female, BALB/c nu/nu; for GI tract uptake: iv, 45 pmol/mouse
Description: (§1) For biodistribution studies, 16 female BALB/c nu/nu mice (age 15–16 weeks) bearing PC-3 xenografts (inoculated subcutaneously with 8 × 10^6 PC-3 cells three weeks before the experiment) were randomized into groups of four. The mice were intravenously injected into the tail vein with a mixture of [^64Cu]Cu-X-RM26 and [^57Co]Co-X-RM26 and were euthanized at 3 and 24 h p.i. Injected activity was adjusted to 300 kBq/mouse for ^64Cu- and 40 kBq/mouse for ^57Co-labeled conjugates. The total injected peptide mass was adjusted to 45 pmol/mouse (in 100 μL). Blood, kidney, pancreas, liver, lung, bone, muscle, tumor, spleen, stomach, small intestines, and the rest of the GI tract with content were collected, weighed, and their activity content was measured in a gamma-counter. The ^64Cu activities were determined from measurements performed on the day of the experiment, while the ^57Co activities were measured after two weeks to allow the ^64Cu to decay. Tissue uptake of the radiopeptides was calculated as a percent of injected dose per gram tissue (%ID/g), with exception of the GI tract for which tissue uptake was calculated as %ID per whole sample.

in vivo = assay: in vivo; parameters: species or system BALB/c nu/nu mice; conditions: female, BALB/c nu/nu, mouse, total radioactivity
Description: as §1

Row | Structure (SMILES) | Blood uptake (PC-3 xenografts; 3 h) [%ID/g] | Kidney uptake (PC-3 xenografts; 3 h) [%ID/g] | Liver uptake (PC-3 xenografts; 3 h) [%ID/g] | Small int. uptake (PC-3 xenografts; 3 h) [%ID/g] | Stomach uptake (PC-3 xenografts; 3 h) [%ID/g] | Tumor uptake (PC-3 xenografts; 3 h) [%ID/g] | Lung uptake (PC-3 xenografts; 24 h) [%ID/g] | Pancreas uptake (PC-3 xenografts; 24 h) [%ID/g] | GI tract uptake (PC-3 xenografts; 3 h) [%ID] | GI tract uptake (PC-3 xenografts; 24 h) [%ID] | Pancreas uptake (PC-3 xenografts; 3 h) [%ID/g] | Blood uptake (PC-3 xenografts; 24 h) [%ID/g] | Liver uptake (PC-3 xenografts; 24 h) [%ID/g] | Tumor uptake (PC-3 xenografts; 24 h) [%ID/g] | further results
1 | CC(C)C[C@H](NC(=O)C[C@H](O)[C@H](CC(C)C)NC(=O)[C@H](Cc1c[nH]cn1)NC(=O)CNC(=O)[C@@H](NC(=O)[C@H](C)NC(=O)[C@H](Cc1c[nH]c2ccccc12)NC(=O)[C@H](CCC(N)=O)NC(=O)[C@@H](Cc1ccccc1)NC(=O)COCCOCCNC(=O)CN1CCN(CC(=O)O)CCN(CC(=O)O)CC1)C(C)C)C(N)=O [[^57Co]Co-NOTA-PEG2-RM26] | 0.02 | 0.51 | 0.06 | 0.34 | 0.59 | 3.27 | 0.02 | 0.02 | 0.26 | 0.02 | – | – | – | – | tissue uptake at 3 h (in vivo; Bone uptake): 0.11 %ID/g; tissue uptake at 24 h (in vivo; Muscle uptake): 0.01 %ID/g; tissue uptake at 24 h (in vivo; Spleen uptake): 0.04 %ID/g; tissue uptake at 24 h (in vivo; Tumor uptake): 0.31 %ID/g
2 | CC(C)C[C@H](NC(=O)C[C@H](O)[C@H](CC(C)C)NC(=O)[C@H](Cc1c[nH]cn1)NC(=O)CNC(=O)[C@@H](NC(=O)[C@H](C)NC(=O)[C@H](Cc1c[nH]c2ccccc12)NC(=O)[C@H](CCC(N)=O)NC(=O)[C@@H](Cc1ccccc1)NC(=O)COCCOCCNC(=O)CN1CCN(CC(=O)O)CCN(CC(=O)O)CC1)C(C)C)C(N)=O [[^64Cu]Cu-NOTA-PEG2-RM26, metal not drawn] | 0.06 | – | 0.59 | 0.72 | 1.19 | – | – | – | 0.76 | 0.07 | 1.31 | 0.04 | 0.49 | 0.42 | tissue uptake at 24 h (in vivo; Bone uptake): 0.15 %ID/g; tissue uptake at 3 h (in vivo; Kidney uptake): 0.46 %ID/g; tissue uptake at 24 h (in vivo; Kidney uptake): 0.25 %ID/g; tissue uptake at 3 h (in vivo; Muscle uptake): 0.02 %ID/g; tissue uptake at 24 h (in vivo; Small int. uptake): 0.12 %ID/g; tissue uptake at 3 h (in vivo; Spleen uptake): 0.1 %ID/g; tissue uptake at 24 h (in vivo; Stomach uptake): 0.14 %ID/g; tissue uptake at 3 h (in vivo; Tumor uptake): 3.94 %ID/g
3 | CC(C)C[C@H](NC(=O)C[C@H](O)[C@H](CC(C)C)NC(=O)[C@H](Cc1c[nH]cn1)NC(=O)CNC(=O)[C@@H](NC(=O)[C@H](C)NC(=O)[C@H](Cc1c[nH]c2ccccc12)NC(=O)[C@H](CCC(N)=O)NC(=O)[C@@H](Cc1ccccc1)NC(=O)COCCOCCNC(=O)CCC(C(=O)O)N1CCN(CC(=O)O)CCN(CC(=O)O)CC1)C(C)C)C(N)=O (stereo partly drawn) [[^64Cu]Cu-NODAGA-PEG2-RM26, metal not drawn] | – | 0.90 | 0.28 | 0.24 | 0.27 | 2.31 | 0.04 | 0.04 | 1.02 | 0.03 | 0.27 | 0.02 | 0.16 | 0.16 | Bone uptake (PC-3 xenografts; 3 h): 0.08 %ID/g; Lung uptake (PC-3 xenografts; 3 h): 0.12 %ID/g; Spleen uptake (PC-3 xenografts; 3 h): 0.05 %ID/g; Bone uptake (PC-3 xenografts; 24 h): 0.13 %ID/g; Kidney uptake (PC-3 xenografts; 24 h): 0.12 %ID/g; Small int. uptake (PC-3 xenografts; 24 h): 0.05 %ID/g; Spleen uptake (PC-3 xenografts; 24 h): 0.02 %ID/g; Stomach uptake (PC-3 xenografts; 24 h): 0.08 %ID/g; Muscle uptake (PC-3 xenografts; 24 h): 0.00 %ID/g
